Experimental data from patent publication US20190269786A1 (published 2019).

B1: huMOV19-14 conjugate (antibody, human IgG1, kappa, V domains shown)
VH: QVQLVQSGAEVVKPGASVKISCKASGYTFTGYFMNWVKQSPGQSLEWIGRIHPYDGDTFYNQKFQGKATLTVDKSSNTAHMELLSLTSEDFAVYYCTRYDGSRAMDYWGQGTTVTVSS
VL: DIVLTQSPLSLAVSLGQPAIISCKASQSVSFAGTSLMHWYHQKPGQQPRLLIYRASNLEAGVPDRFSGSGSKTDFTLTISPVEAEDAATYYCQQSREYPYTFGGGTKLEIKR
modifications: drug attachment sites not stated (see heavy chain); compound 14 (indolinobenzodiazepine dimer, Gly-Gly-Gly linker, NHS ester) conjugated to the antibody, average 3.0 per antibody; residues not stated
B2: huMOV19-90 conjugate (antibody, human IgG1, kappa, V domains shown)
VH: B1 VH
VL: B1 VL
modifications: drug attachment sites not stated (see heavy chain); compound 90 (indolinobenzodiazepine dimer, L-Ala-L-Ala linker, NHS ester) conjugated to the antibody, average 2.7 per antibody; residues not stated
B3: huMOV19-sulfo-SPDB-107 conjugate (antibody, human IgG1, kappa, V domains shown)
VH: B1 VH
VL: B1 VL
modifications: drug attachment sites not stated (see heavy chain); compound 107 linked through sulfo-SPDB linker to the antibody, average 2.7 per antibody; residues not stated
B4: huML66-90 conjugate (antibody, human IgG1, kappa, V domains shown)
VH: QVQLQESGPGLVKPSETLSLTCTVSGLSLASNSVSWIRQPPGKGLEWMGVIWNHGGTDYNPSIKSRLSISRDTSKSQVFLKMNSLTAADTAMYFCVRKGGIYFDYWGQGVLVTVSS
VL: DTVLTQSPSLAVSPGERATISCRASESVSTLMHWYQQKPGQQPKLLIYLASHRESGVPARFSGSGSGTDFTLTIDPMEAEDTATYYCQQSRNDPWTFGQGTKLELKR
modifications: drug attachment sites not stated (see heavy chain); compound 90 conjugated to the antibody, average 2.7 per antibody; residues not stated

Key:
Assay in all cases: cell-based or functional assay
[1] = target: T1, folate receptor 1 (FOLR1) (human, UniProt P15328 25-234)
T1 sequence (P15328 25-234): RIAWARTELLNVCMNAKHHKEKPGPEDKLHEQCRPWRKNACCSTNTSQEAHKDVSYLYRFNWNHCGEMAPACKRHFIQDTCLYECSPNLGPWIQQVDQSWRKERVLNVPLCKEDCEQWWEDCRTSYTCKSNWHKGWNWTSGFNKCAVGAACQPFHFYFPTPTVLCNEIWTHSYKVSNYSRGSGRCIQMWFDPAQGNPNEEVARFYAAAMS

[2] = target: T1, folate receptor 1 (FOLR1); remark: listed apart in the source
[3] = target: T1, folate receptor 1 (FOLR1); remark: listed apart in the source
EGFR = EGFR (UniProt P00533 25-1210, limits assumed)

Binder | IC50, in vitro cytotoxicity (WST-8), Ishikawa cells, conjugate [3] | IC50, in vitro cytotoxicity (WST-8), KB cells, conjugate [3] | IC50, in vitro cytotoxicity (WST-8), NCI-H2110 cells, conjugate [3] | IC50, in vitro cytotoxicity, Ishikawa cells, conjugate + unmodified antibody (1 µM huMOV19) [3] | IC50, in vitro cytotoxicity, KB cells, conjugate + unmodified antibody (1 µM huMOV19) [3] | IC50, in vitro cytotoxicity, NCI-H2110 cells, conjugate + unmodified antibody (1 µM huMOV19) [3] | also measured
B1 | – | – | – | – | – | – | IC50, in vitro cytotoxicity (WST-8) against KB cells [1]: 0.004 nM
B2 | 0.05 nM | 0.005 nM | 0.1 nM | 1 nM | 1 nM | 4 nM | IC50, in vitro cytotoxicity (WST-8), KB cells, -Block [2]: 0.004 nM; IC50, in vitro cytotoxicity (WST-8), NCI-H2110 cells, -Block [2]: 0.02 nM; IC50, in vitro cytotoxicity, KB cells, +Block (1 µM blocking anti-FOLR1 antibody huMOV19) [2]: 0.8 nM; IC50, in vitro cytotoxicity, NCI-H2110 cells, +Block (1 µM blocking anti-FOLR1 antibody huMOV19) [2]: 10 nM
B3 | 0.05 nM | 0.005 nM | 0.1 nM | 2 nM | 0.8 nM | 7 nM | –
B4 | – | – | – | – | – | – | EC50, in vitro cytotoxicity (WST-8), Detroit-562 cells (EGFR): 0.016 nM; EC50, in vitro cytotoxicity (WST-8), NCI-H292 cells (EGFR): 0.012 nM; EC50, in vitro cytotoxicity (WST-8), NCI-H1703 cells (EGFR): 0.02 nM; EC50, in vitro cytotoxicity, Detroit-562 cells, +block (excess unconjugated huML66 antibody) (EGFR): 2.35 nM; EC50, in vitro cytotoxicity, NCI-H292 cells, +block (excess unconjugated huML66 antibody) (EGFR): 1.57 nM; EC50, in vitro cytotoxicity, NCI-H1703 cells, +block (excess unconjugated huML66 antibody) (EGFR): 2.14 nM
